Experiment: label from the status in PepcDB records
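Also: failed if final PepcDB status was selected cloned or expressed and not failed if soluble or beyond.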

Sequence	protein production
ARNAEAEGRLVRECRELLERHAFEELTVPDIAECLGVSVRTLQTALRAETGATPSELLRSIRLDRAREMLLEANPREQSVTAVAEQCGFTHQGRFSALYVKAFGELPSESLRR	failed
ARNAVMVIDGIPVTKSSNTINDALEGVTFNLLKANPGTTTTLTVEKDKSNVEAAVNAFVKAYNDLEKTIGNLSRYDAANKQASVLTGDSTMRMIQNRMRAMLGGNQSAAGGINSLSELGISFQKDGTLALDNNKLSAVLNNPDKNIAAFFTTQGGDDTTSVEGFASRLSELIDGMTRSDGLISSRMDGINSTIKGIGKQREALEFRLESVEKRLRAQFTALDTMIASMNQ	not failed
ARQVTPGQVMVASTVAKLATIIDGEEDSTQRMGFETILPLREGNGPTLFCFHPASGFAWQFSVLSRYLDPQWSIIGIQSPRPHGPMQTAANLDEVCEAHLATLLEQQPHGPYYLLGYSLGGTLAQGIAARLRARGEQVAFLGLLDTWPPETQNWQEKEANGLDPEVLAEINREREAFLAAQQGSTSTELFTTIEGNYADAVRLLTTAHSVPFDGKATLFVAERTLQEGMTPEQAWAPWIAELDIYRQDCAHVDIISPEYFKEIGPLINTQINN	failed
ASISEVAAITGLTQDTLRWYEREGMIPTIARGSDRRRRYSERDVRLIELLVKLRTTGMPTSDMQRFAVLLAGGAETHERRLALLLAHRERILAQQARLDDALAALDTKVDHYR	failed
ASRDLLKEFPQPKNLLNSVIGRALGISHAKDKLVYVHTNGPKKKKVTLHIKWPKSVEVEGYGSKKIDAERQAAAAACQLFKGWGLLGPRNELFDAAKYRVLADRFG	not failed
ATDVAARGLDISGVTHVYNYDIPQDPESYVHRIGRTGRAGKEGMAITFVQPREMGYLRIVEETTKKRMQPLQAPTWDEAFAGQLRVATEKIQEAITEENLADYKTFANELLEKYDATDIAAAMLKMLAKEPDKTPVHITEERPLPSRGGGGYKGK	not failed
ATITHQEKLLTVDTTAHPFLKALGGHEGTDIFPLFMDPYNGLMVMRASFAPGLTLPLHFHTGTVHMYTISGCWYYTEYPGQKQTAGCYLYEPGGSIHQFNTPRDNEGQTEVIFMLSGCNVNFTQDGTYLGLSDAGVIKNWVDRAIREQDNGLRYIAAAVPTYAA	not failed
AVGSGSEGFIVRLPAALLFKEGGIEVENSDGFLFVKRMAEIVNRLPKDVHVEVRGHTDTLPLPAQAPQDKLELTAKRALSVSKLLVKEGIDPKRITTVGRGDQDPLTHARTPEAQESNRRVDIYLYPKE	not failed
AVNEENIMIPKGVEVYEITGPYFFGIATKFEETMAQLGDRPNVRIIRMRKVPFIDSTGIHNLTTLCEMSQKEKITVILSGVNEKVYKVLEKSGFYELLGKENICPNFKIALDRAEEV	failed
AVPGEVRLQVKDLRSVGGSALNGVNMTLRAGQIYGIAGVGGNGQAELANALMGLPQATEGDIHLAPFGDLRNASAEQRRQLRIASIPADRYGAALAGSLSVAENFGIGNIHSGHYGSFWRLGYKRLKQDAQRAVESFDVQGVRSLDQKAALLSGGNAQKLVIAREFSRDPQLVLVHSPSRGLDVRATQAVHDRLRAARDAGAAVLLISEDLDEVLALADRIGVMNGGRIVAEFDHPADRQAIGKAMVSHD	failed
AWKGEVLANNEAGQVTSIIYNPGDVITIVAAGWASYGPTQKWGPQGDREHPDQGLICHDAFCGALVMKIGNSGTIPVNTGLFRWVAPNNVQGAITLIYNDVPGTYGNNSGSFSVNIGKDQS	not failed
AYSELQMLSPSERQCVETVVNMGYSYECVLRAMKKKGENIEQILDYLFAH	not failed
CDLERYPLTDLSEETFWNSESNAELALTSLYRGSLTDGVEYNPSDWWSYHGMIMMEHLSDNAFDRRGENNPFFKISSGNLTADNAFIKRYWETSYKRIGYCNRFLVGIQNSSESEKKTRMIAEARFLRATQYFYLASYFKNVPLVENVLTGEEANNVTKTSQADILKWCVTEFTAAAADLPRFSAIPAGEAGRACKQAALAFLGRTCMLQKDWKSGAKAFHDIMELGDNAINANYQELFYPSTGTSNKENIFYIQYLENYLGTGLPQHALSAKDGGWSLVNPAADLYESYEFKDGTPFSYDDPRYDPSNLGKDRDPRLDYTIYYNGAIFMGTEYKMSPDYSAAKKEKLDYTSEASRTGFMMRKYFEESTPINDVQSANGLTPVIRYAEVLLGYLECLVEDNQTITQGILDETINAVRGRASVNMPPVTEVTPAKLREIVRHERRIELAMEGIRYWDIMRWGIAHEVLSQKIWGAPYPGSTQYATTTKEVDPTGNYRWYVGKRAFRNPTDYTWPIPQSEQNINPNLRD	not failed
CMPYRVEIFDTSHHSSSQCVGGMVVYENNAFQKNSYRRYHLKGSDEYTQMSELLTRRALDFAKEPPPNLWVIDGGRAQLNIALEILKSSGSFVEVIAISKEKRDSKAYRSKGGAKDIIHTPSDTFKLLPSDKRLQWVQKLRDESHRYAINFHRSTKLKNMKQI	failed
CTNYSLLKLAGDVESNPGPTIFSKASADLNALSTSLGELTGMLKDLKAKAETYSPFYKMAKMLFKLATLAVAAMRTKDPVVVVMLIADFGLEVFDTGFFFSYFQEELQPYMKTIPGKISDLVTDAATAAAQIPKGVYSFVSSFFETPEGAVEKQ	failed
DARVQVMGIDAGGTMTDTFFVKENGSFVVGKAQSNPEDESLAIYNSSQDALSHWKSDVSKVYPELVTCVYSGTAMLNRVVQRRGMEVGLICNKGFEQMHSMGRALQSYLGYALEERLHINTHKYDDPLIPLKRIRGVTERTDVKGQVVIPVRQEEVKVAVKELLEAGAKAIVICLLQSHKNAESERIVRDIALKEIEKLGKN	failed
DAVELFKKANAMLDEDEDERVDEAALRQLTEMGFPENRATKALQLNHMSVPQAMEWLIEHAEDPTIDTPL	not failed
DDLEVGKNIDESAYSGIYENNAYLRDGKSNLVSKVVELHGETYATTVKMGLSKTPNTATSAKVKIDAAYLETYNKAHNTDFALYPQDLVTFANEGILTVNANTKSAEVEMTIRAGEGLQEDKTYAIPVAISDQSSDITIKDEDAKHCIYLVKDMRNAGDAYKGEGVMQGYLFFEVNDVNPLNTLSFQLENGKLLWDVVVLFAANINYDAEAGRPRVQCNPNVQYLLDNNETLLQPLRRRGVKVLLGLLGNHDITGLAQLSEQGAKDFAREVAQYCKAYNLDGVNYDDEYSNSPDLSNPSLTNPSTAAAARLCYETKQAMPDKLVTVFDWGQMYGVATVDGVDAKEWIDIVVANYGSAAYPIGQMTKKQCSGISMEFNLGGGGSLSASKAQSMIDGGYGWFMGFAPSPAKYGSVFSRLQGGGEVLYGSNVAAPTIFYKKNDPTPYKYPDDL	not failed
DDNERLSKVEKARQLREQVNDLFSRKFGEAIGMGFPVKVPYRKITINPGCVVVDGMPPGVSFKAPSYLEISSMRRILDSAEFIKFTVIRPFPGLVINNQLV	not failed
DELEAAAESLEDGSLILEGSTDIRHVSLLLNRDLVDESEEYSTLSGYILFHLGRLPENGQKMHADGYIFEVVTMDGHKIEKVHIVADP	failed
DETQVLATVTQELANLFQLESCYIELYNTDCTAVSVVCEYAANQPTYQGLTRQIADFSEIYQPLLQKQHFQTIEIVPGWHPQLLVITQLACPIFDAQGMLGNLWLIRPIQQMLSQSEICLVQTLANLCAIAIRQAKLDATNQARLKKLEQRESLTNKFLRKLSQELRTPITSISLAAQTLETVLSPTI	failed
DGSFRRWSLRQVPEVQGAFMAMDVNSGRVLAMQGGFSYQYSVFNRATQATRQPGSSFKPFVYAAALDSGFTPATIVIDAPIEVQTAQGLWTPKNASGKYYGPTPLRTGVEQSRNLMTVRIAQEIGMDTVASYAERFGVYDRMGQFLANALGAEETTLFKMVAAYAMFANGGERVQPTLVDRVQDRFGRTIYRHDQRICDDCAQPLLPEGRAPHITSKRERVMDAITAYQLTSMMEGVIKRGTGRGINLPVPVAGKTGTTNDAKDVWFIGYTSNIVAGCYIGYDQPRSMGSASGGGFCGPVFQSFMTKAVKKYGGSEF	failed
DHLILLPGWGLGSAPLEPLRDALHEREPHLNVLIEPLPSLDDAADWLDELDDNLPRDSWLAGWSLGGMLAGELAARRGDDCRGLLTLASNPCFRVREDWPNAMPAETFEDFFEAFLLEPHLTRKRFTLLVSQGARDPRTLARQLQVALPQLEREALVAGLQLLGQLDTRAALENFRGPQLHLFAEADALVPLAAAEALLEWLPDVEVSTLAASHGLPLECPDEVAGAILRFLRE	failed

— a protein production outcome set (Wang et al. 2014)
